Measurements from patent US20050112564A1 (published 2005).
No end group written: not given here. *: point of attachment. FITC = O=C1OC2(c3ccc(O)cc3Oc3cc(O)ccc32)c2ccc(NC(=S)*)cc21

Target: T1, avidin (UniProt P02701 25-152)
T1 construct: also called avidin of a bar code 01
Test: FITC-peptide incubated with protein-coated bar-coded carriers; fluorescence read in flow tube
Description: Carriers of 15 mm in length having a bar code 01 or 02 were prepared by using polymethylmethacrylate fibers as a raw material and introducing carboxyl groups on the surface thereof in the same manner as in Example 1. As in Example 1, 50 carriers having a bar code 01 were dispersed in 10 ml HEPES buffer, 100 μmol hydroxysuccinimide was added thereto, followed by the addition of 100 μmol WSC to succinimidate carboxyl groups, and after washing the carriers with the same buffer, 10 ml of a buffer containing 1 μmol/ml avidin was immediately added thereto to immobilize avidin on the carriers. The carriers were subjected to blocking in 1% BSA solution, and washed with distilled water to prepare carriers to which avidin is bound and which have a bar code 01.
Similarly, a FITC-labeled polypeptide having the […] shown in SEQ ID NO: 7 which consists of 15 amino acids without containing avidin-binding peptide sequence and having FITC at the amino-terminus was synthesized and dissolved in PBS containing 0.1% BSA at a concentration of 2 nmol/ml to prepare a test sample solution.
An apparatus shown in FIGS. 1 and 2 was prepared, and the bar code and fluorescence were detected while passing the solutions prepared in (3) above through a hollow tube in the detection device. As the bar code reader, a hand laser scanner SL-114 (product of Nichiei Intec) was used. […]

T1 sequence (P02701 25-152 limits assumed): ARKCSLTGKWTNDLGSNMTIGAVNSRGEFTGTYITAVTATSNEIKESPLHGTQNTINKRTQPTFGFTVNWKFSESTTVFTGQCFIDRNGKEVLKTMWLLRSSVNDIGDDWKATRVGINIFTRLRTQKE

Binder: {FITC}-ISFENTWLWTSPFSS [FITC-labeled polypeptide of SEQ ID NO: 7 (15 amino acids without avidin-binding peptide sequence)]
- binding result: no binding
